Results from article PMC10086585.

Biological target: recombinant human netrin‐1 (R&D), on HIS1K biosensors (human) (UniProt O95631)
Test: BLI; netrin-1 on HIS1K biosensors; m-Laminin-I at 3.12-100 nM; 30°C, 1,000 rpm; PBS, 0.02% Tween-20, 0.1% BSA; 5 min association, 5 min dissociation

Kd: 0.0295 µM
Substance: mouse laminin‐I (complex)
